Source: the supplement of paper PMC11136658

Test system: peptide library, one residue held at a place counted from the Y acceptor
Assay: relative phosphorylation of the sub-library (ratio to the mean residue at this position); higher = residue favoured
Outline: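 Every value reflects phosphorylation relative to the mean randomized residue. The sum of the 18 randomized residues, or 16 in the Ser/Thr-free library, served to normalize intensities at each position, which were then multiplied by that number. Intensities came from phosphorimaging with ImageQuant of biotinylated Tyr-centred peptides captured on streptavidin membranes after 90 min with purified recombinant kinases and 50 μM ATP plus γ-32P-ATP.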

EPHB4, construct: aa561-end, human, sequence (P54760 561-987, looked up): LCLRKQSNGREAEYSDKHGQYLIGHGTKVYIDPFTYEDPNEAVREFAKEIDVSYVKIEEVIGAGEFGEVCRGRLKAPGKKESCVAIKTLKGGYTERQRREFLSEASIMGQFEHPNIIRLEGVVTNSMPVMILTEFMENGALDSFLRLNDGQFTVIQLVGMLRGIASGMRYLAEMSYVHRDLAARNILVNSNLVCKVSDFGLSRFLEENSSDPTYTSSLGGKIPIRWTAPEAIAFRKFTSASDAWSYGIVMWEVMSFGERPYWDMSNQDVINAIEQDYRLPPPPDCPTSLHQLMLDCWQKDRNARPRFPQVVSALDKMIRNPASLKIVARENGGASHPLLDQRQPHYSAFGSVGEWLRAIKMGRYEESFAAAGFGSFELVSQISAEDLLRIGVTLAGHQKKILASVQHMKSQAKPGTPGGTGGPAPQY
ERBB4, construct: aa682-993, human, sequence (Q15303 682-993, looked up): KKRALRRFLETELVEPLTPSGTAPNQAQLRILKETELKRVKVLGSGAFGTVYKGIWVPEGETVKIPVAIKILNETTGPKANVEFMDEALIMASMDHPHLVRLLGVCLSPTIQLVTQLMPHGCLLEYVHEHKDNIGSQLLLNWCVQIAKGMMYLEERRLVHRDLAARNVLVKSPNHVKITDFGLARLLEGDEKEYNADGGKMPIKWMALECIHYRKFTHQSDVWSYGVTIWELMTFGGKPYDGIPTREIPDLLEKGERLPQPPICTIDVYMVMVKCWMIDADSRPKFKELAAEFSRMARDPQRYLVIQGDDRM

EPHB4, construct: aa561-end, human (from UniProt P54760)
relative phosphorylation
Settings | at +1 | at +2 | at +3 | at +4 | at +5 | at -1 | at -2 | at -3 | at -4 | at -5
A fixed | 2.01 | 0.93 | 0.981 | 0.836 | 0.988 | 0.59 | 1.26 | 0.954 | 1.17 | 1.05
D fixed | 0.98 | 0.854 | 0.481 | 0.969 | 1.18 | 2.38 | 1.15 | 1.32 | 1.09 | 1.12
E fixed | 2.09 | 1.19 | 0.409 | 1 | 0.934 | 1.38 | 1.07 | 1.52 | 1.14 | 0.945
F fixed | 0.651 | 1.15 | 1.06 | 1.01 | 0.879 | 0.933 | 0.628 | 1.16 | 0.904 | 0.895
G fixed | 1.03 | 0.54 | 0.694 | 1.16 | 1.22 | 0.36 | 1.17 | 0.986 | 1.39 | 1.38
H fixed | 0.482 | 0.782 | 1.08 | 1.16 | 0.89 | 0.577 | 0.911 | 0.93 | 0.941 | 0.998
I fixed | 1.02 | 1.19 | 1.47 | 0.663 | 0.675 | 1.91 | 0.772 | 0.996 | 0.965 | 0.775
K fixed | 0.404 | 0.755 | 0.464 | 0.907 | 0.959 | 0.357 | 0.99 | 0.674 | 0.953 | 1.05
L fixed | 0.774 | 0.955 | 1.49 | 0.792 | 0.77 | 1.77 | 0.834 | 0.82 | 0.797 | 0.838
M fixed | 1.36 | 0.914 | 1.25 | 0.969 | 0.934 | 0.806 | 0.722 | 0.8 | 0.962 | 0.949
N fixed | 0.489 | 1.05 | 0.698 | 0.947 | 1.03 | 2.07 | 1 | 1.13 | 0.889 | 1.03
P fixed | 0.319 | 0.821 | 1.46 | 1.29 | 1.45 | 0.513 | 1.6 | 1.21 | 1.35 | 1.27
Q fixed | 1.35 | 1.03 | 0.884 | 1.04 | 1.02 | 0.501 | 1.13 | 0.863 | 1.12 | 0.907
R fixed | 0.455 | 1.08 | 0.624 | 1.14 | 1.13 | 0.389 | 1 | 0.871 | 0.989 | 1.17
S fixed | 1.05 | 0.937 | 0.945 | 0.974 | 1.18 | 0.572 | 1.57 | 1 | 0.915 | 0.953
T fixed | 0.833 | 1.1 | 0.832 | 0.984 | 1.05 | 1.08 | 0.863 | 0.843 | 0.696 | 0.905
V fixed | 1.75 | 1.37 | 1.73 | 0.792 | 0.716 | 1.04 | 0.758 | 0.825 | 0.874 | 0.8
W fixed | 0.957 | 1.36 | 1.45 | 1.36 | 0.991 | 0.773 | 0.567 | 1.1 | 0.859 | 0.97
pThr fixed | 1.45 | 1.7 | 0.467 | 0.855 | 0.682 | 1.61 | 0.917 | 0.96 | 0.855 | 0.898
pTyr fixed | 1.36 | 3.59 | 0.719 | 0.965 | 1.04 | 2.25 | 0.931 | 1.17 | 1.08 | 1.11

ERBB2, construct: aa676-end, human (from UniProt P04626)
relative phosphorylation
Settings | at +1 | at +2 | at +3 | at +4 | at +5 | at -1 | at -2 | at -3 | at -4 | at -5
A fixed | 0.734 | 0.684 | 0.603 | 0.869 | 1.51 | 0.72 | 0.953 | 0.764 | 0.972 | 0.899
D fixed | 0.56 | 1.04 | 0.571 | 0.774 | 0.521 | 1.88 | 1.26 | 1.48 | 1.19 | 1.04
E fixed | 0.87 | 1.19 | 0.493 | 0.79 | 0.575 | 1.91 | 1.58 | 1.88 | 1.41 | 0.983
F fixed | 1.73 | 1.58 | 2.19 | 1.09 | 0.958 | 1.12 | 0.99 | 1.27 | 1.02 | 1.06
G fixed | 0.526 | 0.504 | 0.621 | 0.943 | 1.06 | 0.567 | 1.15 | 1 | 1.2 | 1.12
H fixed | 1.18 | 0.884 | 0.867 | 1.02 | 1.61 | 0.846 | 0.936 | 0.855 | 0.872 | 1.04
I fixed | 1.5 | 0.984 | 1.86 | 0.764 | 0.878 | 1.62 | 0.932 | 0.726 | 0.985 | 0.909
K fixed | 0.462 | 0.78 | 0.474 | 0.991 | 0.87 | 0.476 | 0.674 | 0.659 | 0.834 | 0.992
L fixed | 1.53 | 0.938 | 1.51 | 0.8 | 1.13 | 1.28 | 0.973 | 0.963 | 0.994 | 1.06
M fixed | 1.17 | 0.924 | 1.26 | 1.23 | 1.25 | 0.986 | 0.837 | 0.937 | 0.959 | 1.01
N fixed | 0.59 | 1.03 | 0.65 | 0.843 | 0.667 | 1.07 | 1.08 | 1.1 | 1.01 | 1.14
P fixed | 0.395 | 0.714 | 0.72 | 1.18 | 1 | 0.617 | 0.922 | 0.795 | 0.924 | 0.987
Q fixed | 0.923 | 1.02 | 0.821 | 0.959 | 0.679 | 0.849 | 1.07 | 0.876 | 1.17 | 1.04
R fixed | 0.555 | 0.837 | 0.669 | 1.18 | 1.28 | 0.506 | 0.825 | 0.824 | 0.952 | 1.03
S fixed | 0.757 | 0.928 | 0.608 | 0.808 | 0.849 | 0.693 | 0.921 | 0.989 | 0.851 | 0.887
T fixed | 0.943 | 0.874 | 0.68 | 0.844 | 0.944 | 0.811 | 0.966 | 0.948 | 0.761 | 0.883
V fixed | 2 | 0.98 | 1.26 | 0.807 | 1.08 | 1.3 | 1.03 | 0.851 | 0.814 | 0.915
W fixed | 1.59 | 2.12 | 2.14 | 2.11 | 1.14 | 0.748 | 0.91 | 1.08 | 1.1 | 0.991
pThr fixed | 1.22 | 1.36 | 0.495 | 0.755 | 0.514 | 1.99 | 1.7 | 1.7 | 1.26 | 1.14
pTyr fixed | 6.36 | 3.29 | 0.953 | 0.93 | 0.82 | 3.1 | 1.62 | 2.2 | 1.91 | 1.25

ERBB4, construct: aa682-993, human (from UniProt Q15303)
relative phosphorylation
Settings | at +1 | at +2 | at +3 | at +4 | at +5 | at -1 | at -2 | at -3 | at -4 | at -5
A fixed | 1 | 0.674 | 0.487 | 0.87 | 1.07 | 0.611 | 1.41 | 0.86 | 1.34 | 1.06
D fixed | 0.859 | 1.43 | 0.443 | 0.917 | 0.946 | 2.49 | 1.76 | 1.84 | 1.36 | 1.25
E fixed | 1.87 | 2.03 | 0.446 | 1.07 | 0.98 | 2.43 | 2.11 | 2.33 | 1.62 | 1.1
F fixed | 1.07 | 1.32 | 2.24 | 1.18 | 1.25 | 0.62 | 0.599 | 0.925 | 1.12 | 1.08
G fixed | 0.413 | 0.375 | 0.427 | 1.13 | 1.14 | 0.519 | 1.04 | 0.941 | 1.09 | 0.998
H fixed | 0.893 | 0.725 | 0.757 | 0.987 | 0.865 | 0.81 | 0.877 | 0.81 | 0.757 | 1
I fixed | 1.93 | 1.14 | 2.4 | 0.846 | 0.858 | 1.96 | 0.757 | 0.647 | 0.789 | 0.823
K fixed | 0.252 | 0.401 | 0.211 | 0.647 | 0.903 | 0.297 | 0.514 | 0.691 | 0.733 | 0.913
L fixed | 1.03 | 0.97 | 1.97 | 0.758 | 1.01 | 1.21 | 0.826 | 0.859 | 0.931 | 0.936
M fixed | 1.12 | 0.975 | 1.43 | 0.922 | 0.959 | 0.876 | 0.57 | 0.842 | 0.757 | 0.892
N fixed | 0.453 | 0.909 | 0.439 | 0.635 | 0.757 | 1.24 | 1.08 | 1.37 | 0.863 | 1.16
P fixed | 0.345 | 0.691 | 0.616 | 1.28 | 1.49 | 0.503 | 1.22 | 0.964 | 1.14 | 0.907
Q fixed | 1.09 | 0.79 | 0.475 | 0.838 | 0.757 | 0.955 | 1.12 | 0.962 | 1.45 | 1.23
R fixed | 0.318 | 0.58 | 0.328 | 0.769 | 0.864 | 0.333 | 0.508 | 0.602 | 0.65 | 0.897
S fixed | 0.678 | 0.839 | 0.6 | 1.06 | 1.13 | 0.506 | 1.03 | 0.981 | 0.882 | 0.903
T fixed | 1.1 | 1.05 | 0.563 | 0.87 | 1.02 | 1.01 | 0.872 | 0.924 | 0.537 | 0.79
V fixed | 2.46 | 1.2 | 1.46 | 0.93 | 0.911 | 1.11 | 1.16 | 0.697 | 0.836 | 0.815
W fixed | 1.11 | 1.9 | 2.71 | 2.28 | 1.09 | 0.522 | 0.541 | 0.759 | 1.13 | 1.25
pThr fixed | 2.75 | 2.29 | 0.524 | 1.01 | 1.01 | 3.76 | 2.43 | 2.64 | 1.41 | 1.21
pTyr fixed | 15.4 | 5.38 | 1.12 | 1.4 | 1.13 | 2.48 | 2.59 | 2.35 | 1.62 | 1.31
